A short description of data set [1]: FX activation assay, CHO cell surface. To be noted: glycan lost; control: wild-type TF-GFP.
Data set [2] can be described thus: CHO lysates, GFP immunoblot and GFP fluorescence. To be noted: glycan lost; control: wild-type TF-GFP. On the technique in general: A western blot detects proteins with antibodies after separation by electrophoresis.
Data set [3] in a line: cell-surface TF antigen, radiolabelled mAb binding, CHO. To be noted: glycan lost; control: wild-type TF-GFP.
Another data set in a line: TF antigen ELISA, PBMC. To be noted: glycan lost; control: LPS-stimulated PBMC without tunicamycin. In general terms: ELISA stands for enzyme-linked immunosorbent assay.
Data set [4] in a line: FX activation on intact PBMC. To be noted: glycan lost; control: LPS-stimulated PBMC without tunicamycin.
The nature of data set [5]: FX activation in freeze-thaw HUVEC lysates. To be noted: glycan lost; control: wild-type TF-GFP.
Data set [6] can be described thus: confocal microscopy, GFP and TF immunostaining, HUVEC. To be noted: glycan lost; control: wild-type TF-GFP.
Data set [7] in a line: FX activation assay, HUVEC surface. To be noted: glycan lost; control: wild-type TF-GFP.

B1: tissue factor (TF): TFN11A (protein)
parent chain: METPAWPRVPRPETAVARTLLLGWVFAQVAGASGTTNTVAAYNLTWKSTNFKTILEWEPKPVNQVYTVQISTKSGDWKSKCFYTTDTECDLTDEIVKDVKQTYLARVFSYPAGNVESTGSAGEPLYENSPEFTPYLETNLGQPTIQSFEQVGTKVNVTVEDERTLVRRNNTFLSLRDVFGKDLIYTLYYWKSSSSGKKTAKTNTNEFLIDVDKGENYCFSVQAVIPSRTVNRKSTDSPVECMGQEKGEFREIFYIIGAVVFVVIILVIILAISLHKCRKAGVGQSWKENSPLNVS
As for B1, the enzymatic_activity entry in data set [1] is recorded as “no change”. Also, the expression_or_secretion entry in data set [2] was “no change”. The localisation_or_trafficking entry in data set [3] is “no change”.

B2: tissue factor (TF): tunicamycin (protein)
parent chain: METPAWPRVPRPETAVARTLLLGWVFAQVAGASGTTNTVAAYNLTWKSTNFKTILEWEPKPVNQVYTVQISTKSGDWKSKCFYTTDTECDLTDEIVKDVKQTYLARVFSYPAGNVESTGSAGEPLYENSPEFTPYLETNLGQPTIQSFEQVGTKVNVTVEDERTLVRRNNTFLSLRDVFGKDLIYTLYYWKSSSSGKKTAKTNTNEFLIDVDKGENYCFSVQAVIPSRTVNRKSTDSPVECMGQEKGEFREIFYIIGAVVFVVIILVIILAISLHKCRKAGVGQSWKENSPLNVS
Turning to B2, the expression_or_secretion entry in the data set “TF antigen ELISA, PBMC” is “no change”. Also, the enzymatic_activity entry in data set [4] is “no change”.

B3: tissue factor (TF): TFN11A/N124A (protein)
parent chain: METPAWPRVPRPETAVARTLLLGWVFAQVAGASGTTNTVAAYNLTWKSTNFKTILEWEPKPVNQVYTVQISTKSGDWKSKCFYTTDTECDLTDEIVKDVKQTYLARVFSYPAGNVESTGSAGEPLYENSPEFTPYLETNLGQPTIQSFEQVGTKVNVTVEDERTLVRRNNTFLSLRDVFGKDLIYTLYYWKSSSSGKKTAKTNTNEFLIDVDKGENYCFSVQAVIPSRTVNRKSTDSPVECMGQEKGEFREIFYIIGAVVFVVIILVIILAISLHKCRKAGVGQSWKENSPLNVS
Consider B3, for which the enzymatic_activity result in data set [1] is on record as “no change”. The expression_or_secretion entry in data set [2] is on record as “no change”. Moreover, the localisation_or_trafficking result in data set [3] is “no change”.

B4: tissue factor (TF): TFN11A/N124A/N137A-GFP (protein)
parent chain: METPAWPRVPRPETAVARTLLLGWVFAQVAGASGTTNTVAAYNLTWKSTNFKTILEWEPKPVNQVYTVQISTKSGDWKSKCFYTTDTECDLTDEIVKDVKQTYLARVFSYPAGNVESTGSAGEPLYENSPEFTPYLETNLGQPTIQSFEQVGTKVNVTVEDERTLVRRNNTFLSLRDVFGKDLIYTLYYWKSSSSGKKTAKTNTNEFLIDVDKGENYCFSVQAVIPSRTVNRKSTDSPVECMGQEKGEFREIFYIIGAVVFVVIILVIILAISLHKCRKAGVGQSWKENSPLNVS
B4: the enzymatic_activity result in data set [5] and in data set [7] was “no change” in each case. Besides, the localisation_or_trafficking result in data set [6] was “no change”.

B5: tissue factor (TF): TFN11A/N124A/N137A (protein)
parent chain: METPAWPRVPRPETAVARTLLLGWVFAQVAGASGTTNTVAAYNLTWKSTNFKTILEWEPKPVNQVYTVQISTKSGDWKSKCFYTTDTECDLTDEIVKDVKQTYLARVFSYPAGNVESTGSAGEPLYENSPEFTPYLETNLGQPTIQSFEQVGTKVNVTVEDERTLVRRNNTFLSLRDVFGKDLIYTLYYWKSSSSGKKTAKTNTNEFLIDVDKGENYCFSVQAVIPSRTVNRKSTDSPVECMGQEKGEFREIFYIIGAVVFVVIILVIILAISLHKCRKAGVGQSWKENSPLNVS
As for B5, the enzymatic_activity entry in data set [1] is “no change”. In addition, the expression_or_secretion entry in data set [2] is listed as “no change”. The localisation_or_trafficking result in data set [3] is listed as “no change”.

B6: tissue factor (TF): TFN11A/N137A (protein)
parent chain: METPAWPRVPRPETAVARTLLLGWVFAQVAGASGTTNTVAAYNLTWKSTNFKTILEWEPKPVNQVYTVQISTKSGDWKSKCFYTTDTECDLTDEIVKDVKQTYLARVFSYPAGNVESTGSAGEPLYENSPEFTPYLETNLGQPTIQSFEQVGTKVNVTVEDERTLVRRNNTFLSLRDVFGKDLIYTLYYWKSSSSGKKTAKTNTNEFLIDVDKGENYCFSVQAVIPSRTVNRKSTDSPVECMGQEKGEFREIFYIIGAVVFVVIILVIILAISLHKCRKAGVGQSWKENSPLNVS
Regarding B6, the enzymatic_activity entry in data set [1] was “no change”. In addition, the expression_or_secretion entry in data set [2] is listed as “no change”. For the same protein, the localisation_or_trafficking result in data set [3] is on record as “no change”.
